Assay results reported in patent US20020058637.

Columns and labels:
[1] = tested on: phosphorylated peptide p-K2
[2] = target: tau-protein extracted from bovine brain followed by purification (not phosphorylated by TPK-I) (UniProt P29172)
tau-protein extracted from bovine brain followed by purification (not phosphorylated by TPK-I), sequence (P29172 2-448): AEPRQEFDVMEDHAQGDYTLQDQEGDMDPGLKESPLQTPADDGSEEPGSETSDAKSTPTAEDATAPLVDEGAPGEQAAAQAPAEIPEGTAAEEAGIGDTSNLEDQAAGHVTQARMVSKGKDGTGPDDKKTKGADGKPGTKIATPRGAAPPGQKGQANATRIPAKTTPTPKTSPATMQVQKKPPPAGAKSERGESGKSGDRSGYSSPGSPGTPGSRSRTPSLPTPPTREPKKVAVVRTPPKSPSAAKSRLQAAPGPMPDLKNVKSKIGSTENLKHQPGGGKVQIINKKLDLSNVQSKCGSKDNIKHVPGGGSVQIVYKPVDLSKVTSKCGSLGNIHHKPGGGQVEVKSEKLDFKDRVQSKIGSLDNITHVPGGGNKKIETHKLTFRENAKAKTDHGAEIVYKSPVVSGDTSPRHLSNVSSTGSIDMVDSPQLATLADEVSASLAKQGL

recombinant human TPK-I expressed in Escherichia coli BL21(DE3) from pET3C/TPKI (partially purified)
phosphorylation of peptide (Peptide K2): that of K2 hardly proceeded
phosphorylation of peptide [1]: the phosphorylation of p-Ka proceeded
phosphoric acid incorporated into tau-protein (phosphorylating method I) [2]: 1.2 moles of phosphoric acid was incorporated into one molecule of tau-protein

recombinant human-originated tau-protein kinase I expressed in Sf9 insect cells (partially purified)
initial speed of phosphorylation of peptide (phosphorylating method I) (Peptide K2): phosphorylation of K2 was slow and its initial speed was about one-tenth of that of p-K2
phosphorylation of peptide (phosphorylating method I) [1]: the progress of phosphorylation of p-K2 was clearly noted
amount of phosphoric acid incorporated in tau-protein (phosphorylating method I, 32P) [2]: incorporation of tau-protein into phosphoric acid was confirmed

tau-protein kinase II (TPK-II) purified from bovine brain microtubule
phosphorylation of peptide (phosphorylating method II) (Peptide K2): phosphorylated peptide (hereinafter, abbreviated as "p-K2") was obtained
